# Data taken from patent publication US20100272750A1.
# Target: HLA A0301 (human)
# Experiment: 125I-probe competition, purified HLA
row,Binder,IC50 [nM]
1,MVMLMLVRFK (modifications not checked) [HPV31.E1.253],10
2,ATMCRHYKR (modifications not checked) [HPV16.E1.406],90
3,ISFAGIVTK (modifications not checked) [HPV31.E2.205],17
4,KVSEFRWYRY (modifications not checked) [HPV31.E6.72],213
5,STAAALYWYK (modifications not checked) [HPV16.E1.314],5
6,VVLLLVRYK (modifications not checked) [HPV16.E1.274],6.3
7,AVMCRHYKR (modifications not checked) [HPV45.E1.399],311
8,STWHWTGCNK (modifications not checked) [HPV45.E2.322],14
9,SVICFVNSK (modifications not checked) [HPV16.E1.497],109
10,STAAALYWYR (modifications not checked) [HPV31.E1.294],198

# Target: HLA A3301 (human)
# Experiment: 125I-probe competition, purified HLA
row,Binder,IC50 [nM]
1,MVMLMLVRFK (modifications not checked) [HPV31.E1.253],20
2,ATMCRHYKR (modifications not checked) [HPV16.E1.406],17
3,ISFAGIVTK (modifications not checked) [HPV31.E2.205],4370
4,KVSEFRWYRY (modifications not checked) [HPV31.E6.72],338
5,STAAALYWYK (modifications not checked) [HPV16.E1.314],128
6,VVLLLVRYK (modifications not checked) [HPV16.E1.274],6.1
7,AVMCRHYKR (modifications not checked) [HPV45.E1.399],24
8,STWHWTGCNK (modifications not checked) [HPV45.E2.322],428
9,SVICFVNSK (modifications not checked) [HPV16.E1.497],51
10,STAAALYWYR (modifications not checked) [HPV31.E1.294],47

# Target: HLA A3101 (human)
# Experiment: 125I-probe competition, purified HLA
row,Binder,IC50 [nM]
1,ATMCRHYKR (modifications not checked) [HPV16.E1.406],10
2,ISFAGIVTK (modifications not checked) [HPV31.E2.205],115
3,KVSEFRWYRY (modifications not checked) [HPV31.E6.72],3
4,STAAALYWYK (modifications not checked) [HPV16.E1.314],35
5,VVLLLVRYK (modifications not checked) [HPV16.E1.274],0.1
6,AVMCRHYKR (modifications not checked) [HPV45.E1.399],52
7,STWHWTGCNK (modifications not checked) [HPV45.E2.322],54
8,SVICFVNSK (modifications not checked) [HPV16.E1.497],25
9,STAAALYWYR (modifications not checked) [HPV31.E1.294],5.6

# Target: HLA A1101 (human)
# Experiment: 125I-probe competition, purified HLA
row,Binder,IC50 [nM]
1,ATMCRHYKR (modifications not checked) [HPV16.E1.406],14
2,ISFAGIVTK (modifications not checked) [HPV31.E2.205],1.6
3,KVSEFRWYRY (modifications not checked) [HPV31.E6.72],25
4,STAAALYWYK (modifications not checked) [HPV16.E1.314],2
5,VVLLLVRYK (modifications not checked) [HPV16.E1.274],4.1
6,AVMCRHYKR (modifications not checked) [HPV45.E1.399],38
7,STWHWTGCNK (modifications not checked) [HPV45.E2.322],2.8
8,SVICFVNSK (modifications not checked) [HPV16.E1.497],2.2
9,STAAALYWYR (modifications not checked) [HPV31.E1.294],10

# Target: HLA A6801 (human)
# Experiment: 125I-probe competition, purified HLA
row,Binder,IC50 [nM]
1,MVMLMLVRFK (modifications not checked) [HPV31.E1.253],10
2,ATMCRHYKR (modifications not checked) [HPV16.E1.406],35
3,KVSEFRWYRY (modifications not checked) [HPV31.E6.72],192
4,STAAALYWYK (modifications not checked) [HPV16.E1.314],6
5,VVLLLVRYK (modifications not checked) [HPV16.E1.274],76
6,AVMCRHYKR (modifications not checked) [HPV45.E1.399],29
7,STWHWTGCNK (modifications not checked) [HPV45.E2.322],18
8,SVICFVNSK (modifications not checked) [HPV16.E1.497],5.4
9,STAAALYWYR (modifications not checked) [HPV31.E1.294],12

# Target: HLA DRB1*1302 (human)
# Experiment: competition with 125I probe peptide, purified HLA
row,Binder,IC50 [nM]
1,WKHIRLECVLMYKAR (modifications not checked) [HPV31.E2.033 HTL epitope],54
2,WKHMRLECAIYYKAR (modifications not checked) [HPV16.E2.033 HTL epitope],248
3,DWVMAIFGVNPTVAEGF (modifications not checked) [HPV45.E1.228 HTL epitope],68

# Target: HLA DRB1*1501 (human)
# Experiment: competition with 125I probe peptide, purified HLA
row,Binder,IC50 [nM]
1,WKHIRLECVLMYKAR (modifications not checked) [HPV31.E2.033 HTL epitope],134
2,WKHMRLECAIYYKAR (modifications not checked) [HPV16.E2.033 HTL epitope],1390
3,DWVMAIFGVNPTVAEGF (modifications not checked) [HPV45.E1.228 HTL epitope],108

# Target: HLA DRB4*0101 (human)
# Experiment: competition with 125I probe peptide, purified HLA
row,Binder,IC50 [nM]
1,WKHIRLECVLMYKAR (modifications not checked) [HPV31.E2.033 HTL epitope],102
2,LDLQPETTDLYCYEQ (modifications not checked) [HPV16.E7.13 HTL epitope],17
3,WKHMRLECAIYYKAR (modifications not checked) [HPV16.E2.033 HTL epitope],766
4,NGWFYVEAVIDRQTG (modifications not checked) [HPV31.E1.15 HTL epitope],627
5,DWVMAIFGVNPTVAEGF (modifications not checked) [HPV45.E1.228 HTL epitope],571

# Target: HLA DRB1*0802 (human)
# Experiment: competition with 125I probe peptide, purified HLA
row,Binder,IC50 [nM]
1,WKHIRLECVLMYKAR (modifications not checked) [HPV31.E2.033 HTL epitope],476
2,WKHMRLECAIYYKAR (modifications not checked) [HPV16.E2.033 HTL epitope],90
3,DWVMAIFGVNPTVAEGF (modifications not checked) [HPV45.E1.228 HTL epitope],4260

# Target: HLA DRB1*0701 (human)
# Experiment: competition with 125I probe peptide, purified HLA
row,Binder,IC50 [nM]
1,WKHIRLECVLMYKAR (modifications not checked) [HPV31.E2.033 HTL epitope],16400
2,WKHMRLECAIYYKAR (modifications not checked) [HPV16.E2.033 HTL epitope],504
3,NGWFYVEAVIDRQTG (modifications not checked) [HPV31.E1.15 HTL epitope],1460
4,DWVMAIFGVNPTVAEGF (modifications not checked) [HPV45.E1.228 HTL epitope],52

# Target: HLA DRB1*0401 (human)
# Experiment: competition with 125I probe peptide, purified HLA
row,Binder,IC50 [nM]
1,WKHIRLECVLMYKAR (modifications not checked) [HPV31.E2.033 HTL epitope],263
2,LDLQPETTDLYCYEQ (modifications not checked) [HPV16.E7.13 HTL epitope],1900
3,WKHMRLECAIYYKAR (modifications not checked) [HPV16.E2.033 HTL epitope],245
4,NGWFYVEAVIDRQTG (modifications not checked) [HPV31.E1.15 HTL epitope],845
5,DWVMAIFGVNPTVAEGF (modifications not checked) [HPV45.E1.228 HTL epitope],91

# Target: HLA DRB1*0901 (human)
# Experiment: competition with 125I probe peptide, purified HLA
row,Binder,IC50 [nM]
1,WKHIRLECVLMYKAR (modifications not checked) [HPV31.E2.033 HTL epitope],11800
2,WKHMRLECAIYYKAR (modifications not checked) [HPV16.E2.033 HTL epitope],6340
3,NGWFYVEAVIDRQTG (modifications not checked) [HPV31.E1.15 HTL epitope],3670
4,DWVMAIFGVNPTVAEGF (modifications not checked) [HPV45.E1.228 HTL epitope],17900

# Target: HLA DRB1*0101 (human)
# Experiment: competition with 125I probe peptide, purified HLA
row,Binder,IC50 [nM]
1,WKHIRLECVLMYKAR (modifications not checked) [HPV31.E2.033 HTL epitope],1440
2,WKHMRLECAIYYKAR (modifications not checked) [HPV16.E2.033 HTL epitope],701
3,NGWFYVEAVIDRQTG (modifications not checked) [HPV31.E1.15 HTL epitope],1860
4,DWVMAIFGVNPTVAEGF (modifications not checked) [HPV45.E1.228 HTL epitope],487

# Target: HLA DRB1*1101 (human)
# Experiment: competition with 125I probe peptide, purified HLA
row,Binder,IC50 [nM]
1,WKHIRLECVLMYKAR (modifications not checked) [HPV31.E2.033 HTL epitope],81
2,WKHMRLECAIYYKAR (modifications not checked) [HPV16.E2.033 HTL epitope],2400
3,DWVMAIFGVNPTVAEGF (modifications not checked) [HPV45.E1.228 HTL epitope],4960

# Target: HLA DRB1*0301 (human)
# Experiment: competition with 125I probe peptide, purified HLA
row,Binder,IC50 [nM]
1,WKHIRLECVLMYKAR (modifications not checked) [HPV31.E2.033 HTL epitope],146
2,LDLQPETTDLYCYEQ (modifications not checked) [HPV16.E7.13 HTL epitope],590
3,WKHMRLECAIYYKAR (modifications not checked) [HPV16.E2.033 HTL epitope],437
4,NGWFYVEAVIDRQTG (modifications not checked) [HPV31.E1.15 HTL epitope],2800
5,DWVMAIFGVNPTVAEGF (modifications not checked) [HPV45.E1.228 HTL epitope],3750

# Target: HLA DRB1*0405 (human)
# Experiment: competition with 125I probe peptide, purified HLA
row,Binder,IC50 [nM]
1,WKHIRLECVLMYKAR (modifications not checked) [HPV31.E2.033 HTL epitope],71
2,WKHMRLECAIYYKAR (modifications not checked) [HPV16.E2.033 HTL epitope],557
3,NGWFYVEAVIDRQTG (modifications not checked) [HPV31.E1.15 HTL epitope],178
4,DWVMAIFGVNPTVAEGF (modifications not checked) [HPV45.E1.228 HTL epitope],92

# Target: HLA DRB1*0404 (human)
# Experiment: competition with 125I probe peptide, purified HLA
row,Binder,IC50 [nM]
1,WKHIRLECVLMYKAR (modifications not checked) [HPV31.E2.033 HTL epitope],307
2,WKHMRLECAIYYKAR (modifications not checked) [HPV16.E2.033 HTL epitope],6860
3,NGWFYVEAVIDRQTG (modifications not checked) [HPV31.E1.15 HTL epitope],18800
4,DWVMAIFGVNPTVAEGF (modifications not checked) [HPV45.E1.228 HTL epitope],20

# Target: HLA DRB5*0101 (human)
# Experiment: competition with 125I probe peptide, purified HLA
row,Binder,IC50 [nM]
1,WKHIRLECVLMYKAR (modifications not checked) [HPV31.E2.033 HTL epitope],412
2,WKHMRLECAIYYKAR (modifications not checked) [HPV16.E2.033 HTL epitope],280
3,NGWFYVEAVIDRQTG (modifications not checked) [HPV31.E1.15 HTL epitope],1200
4,DWVMAIFGVNPTVAEGF (modifications not checked) [HPV45.E1.228 HTL epitope],387
